Results: publication PMC4872106, “The evolutionary pathway from a biologically inactive polypeptide sequence to a folded, active structural mimic of DNA” (Nucleic Acids Research, 2016)

Legend:
[1] = target: EcoKI Type I restriction/modification enzyme (R2M2S1) (E. coli, UniProt P08956 1-1170; P08957 1-529; P05719 1-464); test: cell-based or functional assay
[2] = target: T1, M.EcoKI (the M2S1 methyltransferase core of the EcoKI Type I RM enzyme) (E. coli, UniProt P08957 1-529; P05719 1-464); test: cell-based or functional assay
T1 sequence 1: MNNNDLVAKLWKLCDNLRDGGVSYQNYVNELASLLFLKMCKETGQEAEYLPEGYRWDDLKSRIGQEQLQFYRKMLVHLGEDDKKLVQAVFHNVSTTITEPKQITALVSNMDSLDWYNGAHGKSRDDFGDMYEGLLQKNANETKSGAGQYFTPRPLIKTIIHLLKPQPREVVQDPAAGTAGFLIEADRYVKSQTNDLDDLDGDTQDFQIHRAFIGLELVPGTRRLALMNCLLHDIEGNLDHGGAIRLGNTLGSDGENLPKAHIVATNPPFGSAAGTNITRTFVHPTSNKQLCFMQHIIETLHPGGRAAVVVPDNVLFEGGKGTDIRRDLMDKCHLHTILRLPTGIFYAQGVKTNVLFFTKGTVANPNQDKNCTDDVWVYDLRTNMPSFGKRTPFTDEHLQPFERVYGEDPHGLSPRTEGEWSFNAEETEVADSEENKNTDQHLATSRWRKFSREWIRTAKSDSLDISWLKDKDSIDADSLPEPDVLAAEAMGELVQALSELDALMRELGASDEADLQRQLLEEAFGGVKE
T1 sequence 2: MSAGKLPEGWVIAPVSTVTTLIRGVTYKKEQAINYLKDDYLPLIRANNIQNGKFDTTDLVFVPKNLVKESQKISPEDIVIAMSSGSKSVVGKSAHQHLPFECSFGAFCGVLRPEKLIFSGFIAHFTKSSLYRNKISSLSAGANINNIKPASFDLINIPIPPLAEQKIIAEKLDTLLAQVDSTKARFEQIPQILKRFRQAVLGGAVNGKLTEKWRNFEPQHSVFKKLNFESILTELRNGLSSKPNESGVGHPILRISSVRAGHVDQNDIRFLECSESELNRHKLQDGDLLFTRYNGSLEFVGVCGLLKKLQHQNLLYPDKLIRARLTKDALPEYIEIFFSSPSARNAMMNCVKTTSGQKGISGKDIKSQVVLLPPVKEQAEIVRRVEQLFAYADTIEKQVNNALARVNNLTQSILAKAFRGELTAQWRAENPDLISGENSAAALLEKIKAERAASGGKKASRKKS

[3] = target: T1, M.EcoKI (the M2S1 methyltransferase …); test: ITC; as described in ref. 15 but in 20 mM HEPES buffer, pH 7.0; heat of interaction plotted against the molar ratio of Ocr dimer to M.EcoKI; settings: both partners purified

EcoKI Type I restriction/modification enzyme (R2M2S1), sequence (P08956 whole entry, one chain of several): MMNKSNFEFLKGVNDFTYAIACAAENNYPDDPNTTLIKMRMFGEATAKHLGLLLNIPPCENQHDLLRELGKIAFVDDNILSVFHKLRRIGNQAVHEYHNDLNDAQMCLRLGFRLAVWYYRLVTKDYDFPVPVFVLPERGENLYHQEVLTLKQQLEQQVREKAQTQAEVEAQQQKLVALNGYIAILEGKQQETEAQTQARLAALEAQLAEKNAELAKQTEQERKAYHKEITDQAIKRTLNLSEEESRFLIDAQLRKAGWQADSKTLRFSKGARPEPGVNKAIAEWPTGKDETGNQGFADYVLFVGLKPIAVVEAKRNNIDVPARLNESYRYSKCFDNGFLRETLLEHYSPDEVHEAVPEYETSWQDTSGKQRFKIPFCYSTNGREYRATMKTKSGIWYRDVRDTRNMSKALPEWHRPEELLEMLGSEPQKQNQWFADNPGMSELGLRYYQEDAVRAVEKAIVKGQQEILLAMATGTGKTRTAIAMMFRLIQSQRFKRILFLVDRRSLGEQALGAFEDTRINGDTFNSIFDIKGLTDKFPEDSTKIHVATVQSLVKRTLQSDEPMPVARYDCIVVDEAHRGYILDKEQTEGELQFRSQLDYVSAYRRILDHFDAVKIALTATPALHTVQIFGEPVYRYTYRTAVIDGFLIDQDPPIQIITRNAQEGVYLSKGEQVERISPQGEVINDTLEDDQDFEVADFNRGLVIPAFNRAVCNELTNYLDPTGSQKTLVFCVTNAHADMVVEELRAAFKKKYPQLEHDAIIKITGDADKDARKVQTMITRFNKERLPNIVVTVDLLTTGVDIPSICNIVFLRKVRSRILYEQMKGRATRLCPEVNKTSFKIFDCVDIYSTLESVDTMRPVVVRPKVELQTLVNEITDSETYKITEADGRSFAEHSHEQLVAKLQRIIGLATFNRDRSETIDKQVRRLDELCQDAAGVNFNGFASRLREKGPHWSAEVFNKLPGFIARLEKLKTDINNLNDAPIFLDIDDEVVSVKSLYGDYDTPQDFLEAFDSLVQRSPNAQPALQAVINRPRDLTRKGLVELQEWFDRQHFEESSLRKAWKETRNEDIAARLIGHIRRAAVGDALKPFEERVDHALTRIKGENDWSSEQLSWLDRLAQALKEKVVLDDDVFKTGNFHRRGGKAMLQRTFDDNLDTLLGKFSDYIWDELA

B1: Ocr (overcome classical restriction) from bacteriophage T7, wild type (natural protein, UniProt P03775 1-117, looked up)
chain: MAMSNMTYNNVFDHAYEMLKENIRYDDIRDTDDLHDAIHMAADNAVPHYYADIFSVMASEGIDLEFEDSGLMPDTKDVIRILQARIYEQLTIDLWEDAEDLLNEYLEEVEEYEEDEE
notes: Ocr, product of bacteriophage T7 gene 0.3; homodimer of a polypeptide of 116 amino acids (34 acidic and 6 basic residues per monomer); also called wild-type Ocr; gene 0.3 protein
- in vivo antirestriction: efficiency of plating of phage lambda v.o on E. coli NM1049(DE3) (r+m+, EcoKI) relative to NM1261(DE3) (r-m-), strains expressing Ocr (vector alone 5x10^-5) [1]: 4 eop
- in vivo antimodification: efficiency of plating on E. coli NM1041 (r+m+) relative to NM1057 (r-m+) of phage lambda v.o recovered from NM1057 expressing Ocr (vector alone 1) [2]: 0.00014 eop
- stoichiometry N [3]: 1 Ocr dimer per M.EcoKI
